For 40 variants, fraction ligated results are on record in the supplement of paper PMC6755084.

The labels stand for the following.
B1: minF1; the commonest letter at each place (parent)
chain: GAGACCGCAACTGAAAAGTTGTTATCAGAAATGGATGGGTTGAATTTCTGCACGTAGAAGCAAAAGGC

In this data set the parent is B1. The experiment in a line: fraction ligated after 30 min (ligated reads / total reads); higher = more ligase activity. To be noted: with F1*subA RNA substrate (template-directed ligation), 42 °C. The gist of the method:
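Minimized ligase ribozyme variants came from oligo-pool templates that were PCR-amplified, T7-transcribed and gel-purified. Their ligated and unligated RNAs were separated on gels before barcoded reverse transcription and MiSeq sequencing, with core bases kept only at quality ≥30. The fraction ligated for each variant is its ligated reads as a proportion of all its reads.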
In the case of GAGACCGCAACTGAAAAGTTGTGATCTGAAATGGATGGGTTGAATTTCTGCACGTAGAAGCAAAAGGC [T23G A27T], the fraction ligated is 0.805. Take GAGACCGCAACTGAAAAGTTGTTATCAAAAATGGATGGGTTGAATTTCTGCACGTAGAAGCAAAAGGC [G28A]: the fraction ligated was found to be 0.809. For the variant GAGACCGCAACTGAAAAGTTGTTATCAGAAATGGCTGGGTTGAATTTCTGCACGTAGAAGCAAAAGGC [A35C], the fraction ligated amounted to 0.0267. Take GAGACCGCAACTGAAAAGTTGTTATCGGATATGGATGGGTTGAATTTCTGCACGTAGAAGCAAAAGGC [A27G A30T]: the fraction ligated is 0.78. Turning to GAGACCGCAACTGAAAAGTTGTAATCAGAAATGGATTGGTTGAATTTCTGCACGTAGAAGCAAAAGGC [T23A G37T], the fraction ligated came out at 0.00942. Regarding GAGACCGCAACTGAAAAGTTGTTATCAGTAATGGATGGGTTGATTTTCTGCACGTAGAAGCAAAAGGC [A29T A44T], the fraction ligated turned out to be 0.741. As for GAGACCGCAACTGAAAAGTTGTTATCAGAAACGGGTGGGTTGAATTTCTGCACGTAGAAGCAAAAGGC [T32C A35G], the fraction ligated is 0.00362.

As for GAGACCGCAACTGAAAAGTTGTCATCAGAAATGAATGGGTTGAATTTCTGCACGTAGAAGCAAAAGGC [T23C G34A], the fraction ligated turned out to be 0.0166. With GAGACCGCAACTGAAAAGTTGTTCTCAGAAATGGACGGGTTGAATTTCTGCACGTAGAAGCAAAAGGC [A24C T36C], the fraction ligated was found to be 0.0109. With GAGACCGCAACTGAAAAGTTGTTATCAGTATTGGATGGGTTGAATTTCTGCACGTAGAAGCAAAAGGC [A29T A31T], the fraction ligated was found to be 0.828. GAGACCGCAACTGAAAAGTTGTTAACAGAAGTGGATGGGTTGAATTTCTGCACGTAGAAGCAAAAGGC [T25A A31G]: the fraction ligated amounted to 0.0139. Turning to GAGACCGCAACTGAAAAGTTGTTATCAGAAATGGATGGGTTCGGTTTCTGCACGTAGAAGCAAAAGGC [G42C A43G A44G], the fraction ligated was 0.00392. The result for GAGACCGCAACTGAAAAGTTGTTATCAGAATTGGTTGGGTTGAATTTCTGCACGTAGAAGCAAAAGGC [A31T A35T] reads 0.0356; that for GAGACCGCAACTGAAAAGTTGTGATCAGAAACGGATGGGTTGAATTTCTGCACGTAGAAGCAAAAGGC [T23G T32C], 0.00942. For the variant GAGACCGCAACTGAAAAGTTGTTATCGGAAAGGGATGGGTTGAATTTCTGCACGTAGAAGCAAAAGGC [A27G T32G], the fraction ligated was 0.0179. Regarding GAGACCGCAACTGAAAAGTTGTTATCAGAGCTGGATGGGTTGAATTTCTGCACGTAGAAGCAAAAGGC [A30G A31C], the fraction ligated was 0.777. Take GAGACCGCAACTGAAAAGTTGTTATCAGAAAGGGATGGGTTTAATTTCTGCACGTAGAAGCAAAAGGC [T32G G42T]: the fraction ligated is 0.00243. On to GAGACCGCAACTGAAAAGTTGTTATCCGAAATGAATGGGTTGAATTTCTGCACGTAGAAGCAAAAGGC [A27C G34A], for which the fraction ligated stood at 0.15. As to GAGACCGCAACTGAAAAGTTGTTATCATAAATGGATGGGTTGCATTTCTGCACGTAGAAGCAAAAGGC [G28T A43C], the fraction ligated is 0.117.

For GAGACCGCAACTGAAAAGTTGTTATCAGAAATGACTGGGTTGAATTTCTGCACGTAGAAGCAAAAGGC [G34A A35C], the fraction ligated worked out at 0.00719.

On to GAGACCGCAACTGAAAAGTTGTTATCAAAAATGGGTGGGTTGAATTTCTGCACGTAGAAGCAAAAGGC [G28A A35G], for which the fraction ligated is 0.246. Turning to GAGACCGCAACTGAAAAGTTGTCCTCAGAAATGGATGGGTTGAATTTCTGCACGTAGAAGCAAAAGGC [T23C A24C], the fraction ligated amounted to 0.0187. Then GAGACCGCAACTGAAAAGTTGTTGTCCGAAATGGATGGGTTGAATTTCTGCACGTAGAAGCAAAAGGC [A24G A27C], with 0.254; and GAGACCGCAACTGAAAAGTTGTTACCAGAAGTGGATGGGTTGAATTTCTGCACGTAGAAGCAAAAGGC [T25C A31G], with 0.057. For GAGACCGCAACTGAAAAGTTGTCATCAGAAATGGACGGGTTGAATTTCTGCACGTAGAAGCAAAAGGC [T23C T36C], the fraction ligated was determined as 0.00904. GAGACCGCAACTGAAAAGTTGTTACCAGAAATGGATCGGTTGAATTTCTGCACGTAGAAGCAAAAGGC [T25C G37C]: the fraction ligated was found to be 0.00302. For GAGACCGCAACTGAAAAGTTGTTATCAGAGATGGATAGGTTGAATTTCTGCACGTAGAAGCAAAAGGC [A30G G37A], the fraction ligated amounted to 0.00857.

Turning to GAGACCGCAACTGAAAAGTTGTTATCAGAAATGCATGGGTTGAATTTCTGCACGTAGAAGCAAAAGGC [G34C], the fraction ligated is 0.00469.

In the case of GAGACCGCAACTGAAAAGTTGTTATCAGAAATGCATGGGTTAAATTTCTGCACGTAGAAGCAAAAGGC [G34C G42A], the fraction ligated was found to be 0.00229. For GAGACCGCAACTGAAAAGTTGTTATCAGAAATGCATGGGTTGCATTTCTGCACGTAGAAGCAAAAGGC [G34C A43C], the fraction ligated is 0.00266. Consider GAGACCGCAACTGAAAAGTTGTTATTCGAAATGGATGGGTTGAATTTCTGCACGTAGAAGCAAAAGGC [C26T A27C], for which the fraction ligated was 0.79. Then GAGACCGCAACTGAAAAGTTGTCACCAGAAATGGATGGGTTGAATTTCTGCACGTAGAAGCAAAAGGC [T23C T25C], with 0.0306; and GAGACCGCAACTGAAAAGTTGTTATCAGAAATTGATGGGTTAAATTTCTGCACGTAGAAGCAAAAGGC [G33T G42A], with 0.0913.

Regarding GAGACCGCAACTGAAAAGTTGTTATCAGAAATGGTTGGGTTGGATTTCTGCACGTAGAAGCAAAAGGC [A35T A43G], the fraction ligated came out at 0.0022.

For the variant GAGACCGCAACTGAAAAGTTGTTATCACAAATGGATCGGTTGAATTTCTGCACGTAGAAGCAAAAGGC [G28C G37C], the fraction ligated is 0.0045. GAGACCGCAACTGAAAAGTTGTTATGAGGAATGGATGGGTTGAATTTCTGCACGTAGAAGCAAAAGGC [C26G A29G]: the fraction ligated turned out to be 0.0311.

As for GAGACCGCAACTGAAAAGTTGTTATCAGAAATGGCTGGGTTGAGTTTCTGCACGTAGAAGCAAAAGGC [A35C A44G], the fraction ligated was 0.00784. Turning to GAGACCGCAACTGAAAAGTTGTTATCAGAAATGGATCGGTTGAATTTCTGCACGTAGAAGCAAAAGGC [G37C], the fraction ligated was found to be 0.00417. As for GAGACCGCAACTGAAAAGTTGTTATCAGAGATGCATGGGTTGAATTTCTGCACGTAGAAGCAAAAGGC [A30G G34C], the fraction ligated turned out to be 0.00227.

GAGACCGCAACTGAAAAGTTGTCATCAGAAACGGATGGGTTGAATTTCTGCACGTAGAAGCAAAAGGC [T23C T32C]: the fraction ligated came out at 0.0041.
